Reference: publication PMC5427286
Several values for one entry are separate records, joined by “and”; a condition that tells them apart may be missing. Equal values may be shown once.

Key:
[1] = target: Hsp21 after limited proteolysis with trypsin (NTR degraded) (A. thaliana) (UniProt P31170); assay: native gel or EMSA; non-denaturing PAGE of purified protein; also of samples withdrawn during 1-30 min of limited trypsin proteolysis
[2] = target: Hsp21^V181A, non-dodecameric mutational variant of Hsp21 (A. thaliana) (UniProt P31170); assay: SEC-SAXS; online SEC-SAXS, Superdex 200 Increase 10/300, 50 mM HEPES pH 7.5, 100 mM NaCl, 0.1% Tween 20, 0.15 ml/min; retention times 80-84 min; EOM with a pool of dimers and hexamers

Chain of Hsp21 after limited proteolysis with trypsin (NTR degraded) (P31170 44-227): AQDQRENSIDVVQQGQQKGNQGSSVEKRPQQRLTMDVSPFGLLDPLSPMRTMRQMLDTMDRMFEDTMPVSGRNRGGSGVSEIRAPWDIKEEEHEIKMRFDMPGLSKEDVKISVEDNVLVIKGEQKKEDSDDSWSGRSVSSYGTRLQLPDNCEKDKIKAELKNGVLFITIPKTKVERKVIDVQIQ

Row | Substance | stoichiometry N [1] | stoichiometry N [2]
1 | Hsp21 after limited proteolysis with trypsin (NTR degraded) (from UniProt P31170 44-227) (domain or fragment) | 12 | 
2 | Hsp21^V181A, non-dodecameric mutational variant of Hsp21 (from UniProt P31170 44-227) (natural protein) |  | 2 and 6
